According to US20150344580A1 (MSM PROTEIN TECHNOLOGIES, published 2015):

T1: human CCR3 (human, UniProt P51677 1-355)
T1 construct: whole, on cells; CHO cells
T1 sequence (looked up): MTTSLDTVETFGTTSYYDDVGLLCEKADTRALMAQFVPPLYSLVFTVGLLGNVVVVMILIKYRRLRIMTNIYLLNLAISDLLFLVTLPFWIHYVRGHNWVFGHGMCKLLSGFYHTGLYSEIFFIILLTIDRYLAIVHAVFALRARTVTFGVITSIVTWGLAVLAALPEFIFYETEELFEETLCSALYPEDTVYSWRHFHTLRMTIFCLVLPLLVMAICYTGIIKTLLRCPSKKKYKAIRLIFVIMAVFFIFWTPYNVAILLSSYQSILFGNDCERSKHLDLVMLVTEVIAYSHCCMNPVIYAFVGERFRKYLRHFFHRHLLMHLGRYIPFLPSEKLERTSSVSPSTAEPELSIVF

T2: human CCR10 (human, UniProt P46092 1-362)
T2 construct: whole, on cells; CHO cells
T2 sequence (looked up): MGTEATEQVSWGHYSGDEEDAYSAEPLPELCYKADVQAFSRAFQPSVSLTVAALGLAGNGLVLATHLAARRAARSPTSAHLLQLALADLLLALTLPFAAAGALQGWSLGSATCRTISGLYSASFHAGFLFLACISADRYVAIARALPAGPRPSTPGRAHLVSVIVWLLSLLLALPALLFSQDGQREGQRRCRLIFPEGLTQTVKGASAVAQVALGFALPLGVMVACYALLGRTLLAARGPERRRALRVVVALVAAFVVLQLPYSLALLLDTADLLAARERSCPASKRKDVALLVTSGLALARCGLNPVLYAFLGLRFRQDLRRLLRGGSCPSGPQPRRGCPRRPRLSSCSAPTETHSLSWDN

T3: human CXCR5 (human, UniProt P32302 1-372)
T3 construct: whole, on cells; CHO cells
T3 sequence (looked up): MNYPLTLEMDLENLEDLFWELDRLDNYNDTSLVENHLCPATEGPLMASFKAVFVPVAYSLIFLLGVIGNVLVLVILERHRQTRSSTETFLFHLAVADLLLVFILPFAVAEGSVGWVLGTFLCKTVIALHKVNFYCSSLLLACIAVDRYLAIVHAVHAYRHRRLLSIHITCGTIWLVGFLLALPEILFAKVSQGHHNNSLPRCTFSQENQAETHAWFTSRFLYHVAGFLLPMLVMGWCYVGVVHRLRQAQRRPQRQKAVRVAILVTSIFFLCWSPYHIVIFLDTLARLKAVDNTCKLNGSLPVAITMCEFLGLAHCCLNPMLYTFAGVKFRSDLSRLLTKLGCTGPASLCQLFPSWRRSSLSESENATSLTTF

T4: human CCR9 (human, UniProt P51686 1-369)
T4 construct: whole, on cells; R1610 cells
T4 sequence (looked up): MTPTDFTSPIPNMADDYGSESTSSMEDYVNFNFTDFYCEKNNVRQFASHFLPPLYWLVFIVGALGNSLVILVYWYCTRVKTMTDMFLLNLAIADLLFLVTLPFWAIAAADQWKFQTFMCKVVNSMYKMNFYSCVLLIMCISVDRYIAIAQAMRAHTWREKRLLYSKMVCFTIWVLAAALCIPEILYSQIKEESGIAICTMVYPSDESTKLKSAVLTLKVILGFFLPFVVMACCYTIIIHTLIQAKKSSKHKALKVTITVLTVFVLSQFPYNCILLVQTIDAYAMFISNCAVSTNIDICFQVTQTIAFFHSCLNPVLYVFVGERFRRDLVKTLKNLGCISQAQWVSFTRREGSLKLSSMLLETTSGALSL

T5: human CXCR2 (human, UniProt P25025 1-360)
T5 construct: whole, on cells; Cf2th cells
T5 sequence (looked up): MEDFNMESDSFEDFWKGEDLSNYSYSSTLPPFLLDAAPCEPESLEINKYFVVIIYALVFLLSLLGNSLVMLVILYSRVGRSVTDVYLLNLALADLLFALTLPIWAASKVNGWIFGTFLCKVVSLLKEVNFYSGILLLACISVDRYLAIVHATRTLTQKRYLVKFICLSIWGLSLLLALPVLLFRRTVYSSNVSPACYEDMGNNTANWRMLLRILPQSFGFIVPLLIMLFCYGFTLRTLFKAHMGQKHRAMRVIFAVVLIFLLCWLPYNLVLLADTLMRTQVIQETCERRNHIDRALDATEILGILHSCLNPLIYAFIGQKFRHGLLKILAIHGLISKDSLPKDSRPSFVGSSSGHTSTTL

T6: human CXCR3 (human, UniProt P49682 1-368)
T6 construct: whole, on cells; R1610 cells
T6 sequence (looked up): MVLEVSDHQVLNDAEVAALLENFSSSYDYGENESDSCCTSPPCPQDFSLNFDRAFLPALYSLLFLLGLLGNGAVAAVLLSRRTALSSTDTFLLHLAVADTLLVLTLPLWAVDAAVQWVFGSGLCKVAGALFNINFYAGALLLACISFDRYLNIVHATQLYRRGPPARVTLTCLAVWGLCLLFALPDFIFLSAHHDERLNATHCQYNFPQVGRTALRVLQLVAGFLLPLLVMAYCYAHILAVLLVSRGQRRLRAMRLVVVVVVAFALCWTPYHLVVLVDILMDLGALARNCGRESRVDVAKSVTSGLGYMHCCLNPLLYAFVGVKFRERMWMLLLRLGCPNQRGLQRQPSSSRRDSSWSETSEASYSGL

B1: MSM-R735 (fully human anti-human CCR7 antibody, IgG1) (antibody)
heavy: not shown
light: EIVLTQSPGTLSLSPGERATLSCRASQSVSSSYLAWYQQKPGQAPRLLIYGASSRATGIPDRFSGSGSGTDFTLTISRLEPEDFAVYYCQQGSPVTFGQGTKVEIKRTVAAPSVFIFPPSDEQLKSGTASVVCLLNNFYPREAKVQWKVDNALQSGNSQESVTEQDSKDSTYSLSSTLTLSKADYEKHKVYACEVTHQGLSSPVTKSFNRGEC
notes: IgG1 format; also called R735 Human IgG1
B2: MSM-R710 (fully human anti-human CCR7 antibody, IgG1) (antibody, V domains shown)
VH: EVQLLESGGGLVQPGGSLRLSCAASGFTFSNYTMHWVRQAPGKGLEWVSGIGPRSGRTYYADSVKGRFTISRDNSKNTLYLQMNSLRAEDTAVYYCARSYAYQYRGFDYWGQGTLVTVSS
VL: EIVLTQSPGTLSLSPGERATLSCRASQSVSSSYLAWYQQKPGQAPRLLIYGASSRATGIPDRFSGSGSGTDFTLTISRLEPEDFAVYYCQSSVTFGQGTKVEIKR
notes: IgG1 format

Key:
human CCR3 = target: T1, human CCR3; assay: FACS, CHO-human CCR3 cells
Description: (§1) In more details, the cell staining procedure was: […] cell suspension in 10 μl FACS buffer (1×PBS, 2.0% FBS, 0.2% sodium azide) was mixed with 10 μl of 200 nM the corresponding anti-CCR7 MAB and incubated on ice for 30 min. Washing step—after the incubation 150 μl of FACS buffer was added to the cell sample, the samples were mixed gently by up-down pipetting the cell suspension. Then the samples were centrifuged at 1100 rpm for 5 minutes, and supernatants were removed. Washing step was repeated ones. Then 10 μl of anti-human PE-(Fab)2 form Jackson Immuno Research Lab. #709-116-098 diluted 40 times in FACS buffer were added to the cells and the cells were re-suspended by up-down pipetting. After 20 min. incubation on ice in dark the washing step was repeated twice. The washed cells were mixed with 100 μl of FIX buffer (0.5% Paraformaldehyde solution in PBS). Fixed samples were stored in dark on ice and analyzed by FACS on Guava PCA-96 flow cytometer. The fluorescent signals collected from individual cells were obtained using fluorescence Activated Cell Sorter (FACS).

human CCR10 = target: T2, human CCR10; assay: FACS, CHO-human CCR10 cells
human CXCR5 = target: T3, human CXCR5; assay: FACS, CHO-human CXCR5 cells
human CXCR6 = target: T7, human CXCR6 (human, UniProt O00574 1-342); assay: FACS, CHO-human CXCR6 cells
T7 construct: whole, on cells; CHO cells

human CCR9 = target: T4, human CCR9; assay: FACS, R1610-human CCR9 cells
Description: as §1

human CXCR2 = target: T5, human CXCR2; assay: FACS, Cf2th-human CXCR2 cells
Description: as §1

human CXCR4 = target: T8, human CXCR4 (human, UniProt P61073 1-352); assay: FACS, Cf2th-human CXCR4 cells
T8 construct: whole, on cells; Cf2th cells
Description: as §1

human CXCR3 = target: T6, human CXCR3; assay: FACS, R1610-human CXCR3 cells
Description: as §1

T8 sequence (P61073 whole entry): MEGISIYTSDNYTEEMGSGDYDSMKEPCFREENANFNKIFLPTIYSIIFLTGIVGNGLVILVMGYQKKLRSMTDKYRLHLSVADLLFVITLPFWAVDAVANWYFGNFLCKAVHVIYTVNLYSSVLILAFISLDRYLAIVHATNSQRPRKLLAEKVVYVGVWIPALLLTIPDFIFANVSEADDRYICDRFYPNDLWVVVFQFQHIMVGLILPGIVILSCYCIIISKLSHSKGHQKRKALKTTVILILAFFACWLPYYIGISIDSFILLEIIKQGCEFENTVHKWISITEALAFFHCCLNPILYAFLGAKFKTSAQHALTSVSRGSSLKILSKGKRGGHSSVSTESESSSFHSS
T7 sequence (O00574 whole entry): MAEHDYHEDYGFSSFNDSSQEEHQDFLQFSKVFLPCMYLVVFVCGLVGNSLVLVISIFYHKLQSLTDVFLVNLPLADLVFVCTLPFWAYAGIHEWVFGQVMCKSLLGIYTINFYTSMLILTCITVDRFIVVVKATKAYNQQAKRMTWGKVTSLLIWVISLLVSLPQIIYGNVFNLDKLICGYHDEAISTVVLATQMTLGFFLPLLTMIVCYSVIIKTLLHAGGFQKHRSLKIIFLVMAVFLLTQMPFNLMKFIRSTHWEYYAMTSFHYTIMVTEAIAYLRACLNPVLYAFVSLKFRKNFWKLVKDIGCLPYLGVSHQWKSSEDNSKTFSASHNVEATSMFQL

Binder | binding result (human CCR3) | binding result (human CCR10) | binding result (human CXCR5) | binding result (human CXCR6) | binding result (human CCR9) | binding result (human CXCR2) | binding result (human CXCR4) | binding result (human CXCR3)
B1 | no binding (tested: 200 nM MAB mixed 1:1 with cells) | no binding (tested: 200 nM MAB mixed 1:1 with cells) | no binding (tested: 200 nM MAB mixed 1:1 with cells) | no binding (tested: 200 nM MAB mixed 1:1 with cells) | no binding (tested: 200 nM MAB mixed 1:1 with cells) | no binding (tested: 200 nM MAB mixed 1:1 with cells) | no binding (tested: 200 nM MAB mixed 1:1 with cells) | no binding (tested: 200 nM MAB mixed 1:1 with cells)
B2 | no binding (tested: 200 nM MAB mixed 1:1 with cells) | no binding (tested: 200 nM MAB mixed 1:1 with cells) | no binding (tested: 200 nM MAB mixed 1:1 with cells) | no binding (tested: 200 nM MAB mixed 1:1 with cells) | no binding (tested: 200 nM MAB mixed 1:1 with cells) | no binding (tested: 200 nM MAB mixed 1:1 with cells) | no binding (tested: 200 nM MAB mixed 1:1 with cells) | no binding (tested: 200 nM MAB mixed 1:1 with cells)
